What is called Kd is a measure of binding affinity in units of concentration.

The target in the series is T1, PHF14 ePHD domain WT (Homo sapiens, UniProt O94880 382-499).
T1 sequence: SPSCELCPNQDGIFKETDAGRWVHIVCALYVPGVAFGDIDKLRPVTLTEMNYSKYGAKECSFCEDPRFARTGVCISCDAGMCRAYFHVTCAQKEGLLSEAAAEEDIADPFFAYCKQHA
The series can be described thus: SPR; protein immobilized on CM5; SPR: HBS-P (10 mM HEPES pH 7.4, 150 mM NaCl, 0.05% P20), 25 °C, 1:1 Langmuir fit; EMSA: LightShift kit protocol, 0.5x TBE native PAGE, buffer not stated. The note with it: protein: recombinant; tags: His (EMSA, purification method); FLAG (SPR); label: biotin (EMSA); blunt.

B1: CG-rich probe, unmethylated (dsDNA)
DNA 1: ACGGCTCGTCGCTACGGCTCGTCGCT
DNA 2: AGCGACGAGCCGTAGCGACGAGCCGT
B1: the Kd turned out to be 36 nM.

B2: AT-rich probe (dsDNA)
DNA 1: CATTAGATGATAGCATTAGATGATAG
DNA 2: CTATCATCTAATGCTATCATCTAATG
Regarding B2, the Kd was determined as 230 nM.

The values above are taken from publication PMC10113255, “PHF14 enhances DNA methylation of SMAD7 gene to promote TGF-β-driven lung adenocarcinoma metastasis”.
